Assay: soluble fraction after stress (log2 fold change); higher = more stays soluble; pooled small domains, quantitative proteomics
Conditions: stress: pH 4
Summary of the method: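 Aggregation propensity is estimated from the fold change in each domain's soluble amount after acid stress. Pooled small-domain libraries were stressed at pH 4, and higher log2 values mean more stayed soluble.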

With “HMSEFSDRFRLLKDESGATLKELSEQLDITVPNLSYYMKGREPSYDILIKIADYFGVTTDWLIGRTDER” the “soluble fraction (log2)” value was -0.643.

In the case of “HMSEILQLINKIDKKLEKGYTFANISRNHYEKIYKEEILNLYKTSKLKGEAEDSIKEVLESLLGDLRKP”, the “soluble fraction (log2)” value is reported as 0.368.

For “HMSEISAEAGKRIRYFRKSRSMTLEELAAVIHKSKATLSKYETGEISIDLDTLYDLAVALQVRAEQLLPAS”, the “soluble fraction (log2)” value was -0.764.

In the case of “HMSEITMMQMEIPEGHNWENRLVKDVSMPTGSLAVMIKRHGETLIPGGDTRILAGDTIVLSVPAYESG”, the “soluble fraction (log2)” value is reported as -1.03.

For “HMSEIYVDDINRKILYLLSQGIKTKSLLEHIPLSMSGIEKRKKQLKMLFSVEDGKDETLLEMAKEKGF”, the “soluble fraction (log2)” value was -1.07.

With “HMSEKAQSENEDLIKILALLIHAAKIDENYSEKEKKLIISFAEMSSNKKLDREQINSLVDKAEQYEK” the “soluble fraction (log2)” value was -0.507.

In the case of “HMSEKLLTLNEISEKLRVSRHTVQAWVSPSSPNHRPEFSSLARHAGRKTVFLESDVDAWLAQRR”, the “soluble fraction (log2)” value is reported as -0.385.

In the case of “HMSEKYPPIDWNNIKTGQSVLIKDINQVVSLTKLPDSKGFAEVQMGLIKTKIKAEKLAATDKKPNK”, the “soluble fraction (log2)” value is reported as -0.0179.

With “HMSELDSYIGARLRMRRLMLGMSQEALGEKLSLTFQQIQKYEKGTNRVSASRLYELAQVLDVPVQFFFDGA” the “soluble fraction (log2)” value was -1.39.

With “HMSENDTILAKFASIINNKSLELVIFPDTAYLKGQVSTPEDKARAETVAQSLLGSKPLISLIEFE” the “soluble fraction (log2)” value was -0.167.

With “HMSENPLTSREIEIVQLLANGKTTKSIAEELHLSNGTIRNYVSIVLDKLNVSNRIEAIRKALDKGWL” the “soluble fraction (log2)” value was -0.0724.

With “HMSEPQEISYSDFIEQVNRNEIRQVEFDGQHEYLTVIRKDTSRFKVIIPAPDPRLLDDLMEHDVEIVGKE” the “soluble fraction (log2)” value was 0.0554.

With “HMSEQYEQIQLALKTLTQDEQDIVRLVVVEGASLRTAGKNLGVSAMTIQRRLKRALARLRDLLAS” the “soluble fraction (log2)” value was -0.858.

With “HMSESKYKMIKNWIKSKILDGTLVPNQKIYSESELMEIFDVSRHTVRLAIGELVSEGYLFKRQGTGTFVTQ” the “soluble fraction (log2)” value was -0.763.

In the case of “HMSETTSRVLQLLGLLQARRVWTGQELADRLGVTGRSVRRDIERLRDLGYPVHASKGRDGGYQLGA”, the “soluble fraction (log2)” value is reported as -0.222.

In the case of “HMSEYILATNDGEFLRITSYSKEEGGMLVWEKTSSIVSAEHKVIPYSQIINIKDRNGDVVWDKD”, the “soluble fraction (log2)” value is reported as -0.0816.

For “HMSEYNPGIYRVTDPALNIRTGPGVEYPVVGVIKDQGSYTITEIRNKSWGRLLSGAGSTAIKHIVFT”, the “soluble fraction (log2)” value was -0.173.

In the case of “HMSFEITGDELILRFVKDKGGATTEQIRKHWEASNRGGKSDNNLTNLVKSGKLLRSKDPNGPGSLYTAS”, the “soluble fraction (log2)” value is reported as -0.749.

In the case of “HMSFESMGLTPRQADVLTLLLQGKSNKDIARRLVLSVETVKDHVQAVLRALGVSSRTQAVLAVGQMTQQ”, the “soluble fraction (log2)” value is reported as -0.37.

For “HMSFGYFQLRAKDPQKLKSVLEKIPQIQSIKEEKGDLIGYLNADMEAEELSQKLAAAKIFVTHMAKKK”, the “soluble fraction (log2)” value was 0.216.

For “HMSFISRMVVAVEDIALSTRPNSTPSGDKYVSKGTVLLMEKRENDWVEVRQPSSPLSGWAPKTSLLSV”, the “soluble fraction (log2)” value was -0.426.

For “HMSFNLSETKKLILEEIQKGVSSVTQIAATAGISKGMTYNHLRELKLMGYIADGDSGYVITDAGKIAS”, the “soluble fraction (log2)” value was -0.323.

In the case of “HMSFRYLHVKRQLMSLIGTMNAHERLPSRTDLSETFQVARTTIERAISELIGEGWLYARDGSGTYVAER”, the “soluble fraction (log2)” value is reported as -0.919.

With “HMSFSTHHEYYIYNLAVDMRKGYDGLSGLVVNELGRQPWDGSVYVFFNTMRDKVKLLVWDTDGYVIYSKR” the “soluble fraction (log2)” value was -0.505.

In the case of “HMSFTDLILKSANAIDEMGGIWENGKQILGEKAIAIHEEIVDNGLNPDKDGFYKLANGQMIQYG”, the “soluble fraction (log2)” value is reported as -0.85.

With “HMSFVEVTVSELKNYVNSHARIKLKSGKEFKGFILDANEEGVIIKVQLRGGTAESTISYNRIDRAAVF” the “soluble fraction (log2)” value was -1.11.

With “HMSGAERAAALLVALGPEVASEIMKFLDDESIQKLASEIAKIEVLSPQEKEDLIGQFLLELKKT” the “soluble fraction (log2)” value was -0.982.

For “HMSGAWEVGLLRQFTDWMGTQYNAYAGRNFDAITVAQVAEKNPELLTPFVESFFKERVEPALAAG”, the “soluble fraction (log2)” value was -0.589.

With “HMSGEDYLERILMLKEKHGNVRAIDIANSMNFSKPSVSIALHKLSENGYVVIQNNGAIELTEKGLEVAT” the “soluble fraction (log2)” value was -0.0506.

In the case of “HMSGEIPFPPAFKPSADHIAIASEKGINIETELLNFRDYHQARGTKLIDWNSAFRVWLRNAR”, the “soluble fraction (log2)” value is reported as -0.869.

For “HMSGEITVPNLIGVEAIQAKTLLIQAGFLIKEFYDLDSTQPAGVVIRQAPEAGTTQTIGKSVTITINKQ”, the “soluble fraction (log2)” value was 0.106.

In the case of “HMSGENAVLTEGTMVTVRRGGETITATARKETVKQFLSRMDIIPGSREMVGIELMENSVMLTISD”, the “soluble fraction (log2)” value is reported as -1.02.

With “HMSGFPTDAQIVREIRNILPTLENPTPRMVRKALENTFEVDMGESKTKKYINNIIITEYEKWSSVQSIRE” the “soluble fraction (log2)” value was -0.804.

For “HMSGGNTSAFKGKLNYEYRGNDTIITGSTYPVKELIKKAGGRWDPGSSAWIIKGRHVSDNEIF”, the “soluble fraction (log2)” value was -0.317.

With “HMSGQKDVPDLYGMTVKQAKKEVEAAGFKLKEGKEVYSNDYSKGQIAEQDPESGSKAKKGSSITVHVSKG” the “soluble fraction (log2)” value was 0.22.

With “HMSGRIWTDNYGRTIEADVIKVNINRTVLLEFTDKKTKTVSFDTFISKDIQYLEYLLTRRNRGKL” the “soluble fraction (log2)” value was -1.14.

For “HMSGRVPTADDIAVGMKVYVPRLGGTGTVVTEPVRDKVVIQVGSLRLHAEVAELLLPDEHGRIQVPR”, the “soluble fraction (log2)” value was -0.127.

In the case of “HMSGTGSYVALLRDPQGNVGKVVVKGSKGEQVLSQPQQAARLDGATPSYEVTGRQIAEDFGRALAV”, the “soluble fraction (log2)” value is reported as -0.198.

In the case of “HMSGTYIATVEAGSLDIYKSMTSNETIGKASRGDVFQILEDMGSGYARVSYNDVEGYMSIKTGDASIEEL”, the “soluble fraction (log2)” value is reported as -1.83.

With “HMSGVSESIEKKIQYLLLEKPLPLHDLIEAIEIGKEEDRLKVLRSLMDSDTVKIEDDLYHWNA” the “soluble fraction (log2)” value was -0.393.

With “HMSGYSTLFTRMSREDAQAVVSLLQDDGIEYRYNDDTGTVQVPSATVDQTRAKLVSAGYPRS” the “soluble fraction (log2)” value was -0.303.

For “HMSHANAALTPRARLRLAKLIVEEHWPVATAAKMFMVSPPTARKWATRFRAEGPAGMADRSSRP”, the “soluble fraction (log2)” value was 0.123.

In the case of “HMSHFRMLPSITEADAFLKSRSLPAGLEVREQVDAFLAQARQTLALAQEAPWLSKQEVLETLADEFVQTS”, the “soluble fraction (log2)” value is reported as -1.25.

In the case of “HMSHFSERLKSLRQQSSITQAKLADDLNVTKSLISMYESGQRLPSFEMLETIADYFNVPLSSLV”, the “soluble fraction (log2)” value is reported as -0.51.

For “HMSHGFFTLQSDDLNLLRTVLEGHSSIGDIKIEGIQLVAYLKEPLNGAELNKILFEKGINLSYLVHRK”, the “soluble fraction (log2)” value was -1.52.

For “HMSHGFVHLKGAVQHPGIYPVKENTRWDEVVKAAGGLTAAADIQQVNLAKVASDQESLYVPEKGET”, the “soluble fraction (log2)” value was 0.161.

For “HMSHGSIYFSGKTGLKGSVDINGTVNSINKKIFLKPGNYNFLIKADGYKNLKGSFQISKGDKKFVELVLIP”, the “soluble fraction (log2)” value was -0.0804.

For “HMSHGYVELKAENNDALISALENHTWFENIKLDPETNLVKAILTKPIEAENLNKMLFEKGIILSHLVKRK”, the “soluble fraction (log2)” value was -0.286.

For “HMSHYDILEVDPKASATEIKQSFRKKSLQYHPDRNKSSDAHEYMTKITEAYNILGDKDKRRHYDMELKL”, the “soluble fraction (log2)” value was 0.172.

For “HMSHYEYKVGDRVNLLDYDDFGILYKEKDNFYNVVVYYNGEFVEVNVKRITLEVAAKELYPEGYDLSTLFV”, the “soluble fraction (log2)” value was -2.41.

For “HMSIASASVKEKIRDIVSSEPPQKPFSDAKIAEILAEDGIAIARRTVAKYREEIGIPTKSLRKR”, the “soluble fraction (log2)” value was 0.292.

In the case of “HMSIDNALLTLIGKTGTAQTVLRPSGKVVIGDEVYDAVTAGEFIDKGSAIVVTRVEATQLYVEASEA”, the “soluble fraction (log2)” value is reported as -0.343.

In the case of “HMSIELEISADGNNYRVSGLSDGEDVRVYSVSGVQVFSGKAQGGEVVIPADNWNKGIYVISAGGSSVKVL”, the “soluble fraction (log2)” value is reported as -0.312.

With “HMSIGLEDLIEQKGVADTDLRPSGWINVGNQRIFVVTEGSYIDQNDNVIILSVDGNRVVVRKI” the “soluble fraction (log2)” value was -0.941.

For “HMSIGLEELVGSHGEAITDLRPAGQVSIAARRISAVSEGDFINKGDSVEVLSVEGYRVMVRKLET”, the “soluble fraction (log2)” value was -0.4.

With “HMSIITLFQEINAAVAEATGGRVPESVVQNFILGKDVVIPEDVKEIIISKLKAFATDIEGMLEESGFD” the “soluble fraction (log2)” value was -2.59.

With “HMSILDEAEFKKIESALLDFITNNIFTVKELLQASRGIKQDKFWKVFQFLQSERKVVVNELGYIEL” the “soluble fraction (log2)” value was -0.513.

With “HMSILSIGLERGMKKGVAWGIAKSILDILEETGPVSEKTREMIVTETDAERLSAWVKKAARSNSEEDFLSK” the “soluble fraction (log2)” value was -1.21.

For “HMSILSRREHEIMQWVKGGKTNIEIAQILGISARTVRNHLQNVFRKLDVINRAQAVFEVERRR”, the “soluble fraction (log2)” value was -0.639.

For “HMSIMNEQIREILNQQVTKTSKIQQLLLLGLTRRQVADLVTNGNYGFVQNVYRNMLDAGIFTP”, the “soluble fraction (log2)” value was -0.487.

For “HMSIMNLSEKIVVLRKSNGMSQEELAEKLYVSRQAVSRWEMGTAVPDSTNILQLGKLFHVTTDYLLNDEYE”, the “soluble fraction (log2)” value was -0.232.

With “HMSINQIADKGYITRLIDNNANIKDVLYYDASSRILAIEDPKYMFYLKNTDWNQFAKEMGFKLE” the “soluble fraction (log2)” value was -0.556.

In the case of “HMSINTLEVHSLKALENLAESPLLISFSYENEEYNYRLASSDVSLLKKISSNYSDDSDIKGLRFIS”, the “soluble fraction (log2)” value is reported as -0.316.

For “HMSIQQEATGNRIRELLLNNGYTVKDIQEVMGFENPQAVYKWLSGKSLPNLDNLLILSKVLHTSIEDILV”, the “soluble fraction (log2)” value was -1.09.

With “HMSISSIDFENLKSDELSDAQITQIYRQAQEQGLSIDELSSLAIARGMSPTEVAKLRSRFNSIP” the “soluble fraction (log2)” value was 0.00293.

For “HMSIVVPDLRGKTLEEARAILKEADLDFEINDSTFSKTARPGTIRDVVPSPGSRVKAGRILFISINGF”, the “soluble fraction (log2)” value was -0.0618.

With “HMSIYQYFNISEINSIDDLKKQYFKLAKKYHPDAGGDKVSFQELQNEYEQLTKKILSGAELNADELKTE” the “soluble fraction (log2)” value was -0.163.

With “HMSKASLFFLFNHKDELYIVDNNHVQDVPKPRELIRRFSTIEQIREHALHLGLPIANDTARE” the “soluble fraction (log2)” value was -0.0573.

For “HMSKEGLASLLEDINGLGAIRRKTLIDHFGSVAKIRGARPEEIAALPGMGRKIAEHILASLRED”, the “soluble fraction (log2)” value was 0.418.

Reference: the domain aggregation screens of Martell et al. (2025)
